The record followed here is US8399204B2, “Method for screening of substance which alter GPR120-mediated cell-stimulating activities” (Eisai R&D Management Co., Ltd., priority 2005, dated 2013).

Residue numbers refer to the chain shown, from its start.

The target of assay [1] is T1, human GPR120 (Homo sapiens, UniProt Q5NUL3).
T1 construct: open reading frame which starts with ATG of the nucleotide number 1-3 and ends with TAA of the nucleotide number 1084-1086; expressed in transfected cells; host or cells: SE302 cells (HEK293 clone carrying a CRE-PLAP reporter), transduced with retrovirus from pBabeCL(GPR120)IH and selected with hygromycin
T1 sequence (Q5NUL3 1-361): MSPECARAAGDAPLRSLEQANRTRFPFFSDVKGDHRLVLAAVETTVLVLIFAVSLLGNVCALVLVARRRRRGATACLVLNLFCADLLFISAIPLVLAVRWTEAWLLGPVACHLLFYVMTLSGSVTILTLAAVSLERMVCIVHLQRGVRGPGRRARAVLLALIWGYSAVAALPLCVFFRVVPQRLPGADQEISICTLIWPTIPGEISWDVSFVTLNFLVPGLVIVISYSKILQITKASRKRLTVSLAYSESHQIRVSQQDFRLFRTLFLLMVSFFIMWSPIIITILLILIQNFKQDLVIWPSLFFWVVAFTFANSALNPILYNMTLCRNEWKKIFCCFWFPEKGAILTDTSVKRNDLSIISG
Briefly: PLAP reporter transcription activity in GPR120-SE302 cells (CRE-PLAP reporter). It is filed as cell-based. Conditions: HEK293-derived SE302 cells expressing human GPR120; forskolin 1.0 μM plus sample, 24 hours; chemiluminescence of supernatant; compared to control cells (GFP-SE302). As to the method: (§1) Using a retrovirus vector plasmid pBabeCLcre4vPdNN capable of inducing a reporter PLAP gene by a cyclic AMP responsive element sequence, a retrovirus vector was prepared according to the method described in Example 4. The retrovirus vector prepared was introduced into HEK293 cells and cells were cloned by a limiting dilution method.
(§2) The SE302 cells constructed in Example 5 were seeded onto a collagen coated 6 well plate (Asahi Technoglass, Co.) at 1.2×10^5 cells per well. Cells were cultured with 2 mL/well of DMEM medium (Sigma, Co.) (containing 10% FBS, penicillin 100 units/mL and streptomycin 100 μg/mL). On the following day, solutions of the virus vector containing GPR120 or mGPR120 obtained in Example 4, and polybrene (also called hexadimethrine bromide, Sigma, Co.) at a final concentration of 8 μg/mL were added to SE302 cells. Cells were cultured with the medium containing 500 μg/mL of hygromycin (Invitrogen, Co.) and cells grown under this condition were used for experiments as SE302 cells introduced with GPR120 gene, and SE302 cells introduced with mGPR120 gene (referred to as “GPR120-SE302 cells” and “mGPR120-SE302 cells”, respectively hereinafter).
The aforementioned GPR120-SE302 cells or mGPR120-SE302 cells constructed in Example 6 were suspended in the culture medium for measurement of transcription activity (DMEM containing FBS which was heat-treated at 65° C. for 30 min at a final concentration of 10%) and seeded onto a 96 well plate (Becton Dickinson, Co.) at 1×10^4 cells/well. In addition, as control cells, SE302 cells expressing green fluorescent protein (GFP, Invitrogen, Co.) (referred to as “GFP-SE302 cells” hereinafter) were used. Specifically, GFP-302 cells were prepared by obtaining a virus for expressing GFP using the method shown in Example 3 and 4, and transfecting SE302 cells with the virus using the method shown in Example 6. Cells were cultured for 24 hours after seeding, and forskolin prepared at a final concentration of 1.0 μM and a sample were added. Cells were cultured for another 24 hours and 5 μL of the cell supernatant was recovered and transferred to a polypropylene 384-well white plate (Nalge Nunc International, Co.). Then, 20 μL of the assay buffer (280 mmol/L Na2CO3—NaHCO3, 8 mmol/L MgSO4, pH 10) and 25 μL of Lumiphos530 (Lumigen, Co.) were added. Following a 2-hour reaction at room temperature, chemiluminescence in each well was measured using a Fusion plate reader (Perkin Elmer, Co.) and was defined as the transcription activity. Based on these measured values, stimulation/inhibition of transcription activity was calculated using the equation (I) shown below and described as [% of control]. Activities of the group with a sample added were calculated using the value of control placed on each plate. […]

Assay [2] addresses T2, mouse GPR120 (Mus musculus, UniProt Q7TMA4).
T2 construct: expressed in transfected cells; host or cells: SE302 cells (HEK293 clone carrying a CRE-PLAP reporter), transduced with retrovirus from pBabeCL(mGPR120)IH and selected with hygromycin
T2 sequence (Q7TMA4 1-361): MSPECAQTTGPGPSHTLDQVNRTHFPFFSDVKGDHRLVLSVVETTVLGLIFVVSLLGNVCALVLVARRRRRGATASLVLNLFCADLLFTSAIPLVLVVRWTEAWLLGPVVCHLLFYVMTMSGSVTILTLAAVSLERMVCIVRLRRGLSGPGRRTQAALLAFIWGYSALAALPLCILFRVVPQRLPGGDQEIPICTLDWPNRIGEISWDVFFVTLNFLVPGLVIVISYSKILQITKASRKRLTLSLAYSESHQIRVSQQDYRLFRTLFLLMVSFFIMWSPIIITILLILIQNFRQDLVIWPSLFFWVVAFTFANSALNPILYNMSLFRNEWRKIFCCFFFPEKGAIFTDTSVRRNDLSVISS
As to the kind of experiment: PLAP reporter transcription activity in mGPR120-SE302 cells (CRE-PLAP reporter). It is filed as cell-based. Conditions: HEK293-derived SE302 cells expressing mouse GPR120; forskolin 1.0 μM plus sample, 24 hours; chemiluminescence of supernatant; compared to control cells (GFP-SE302). Here is the method: as §1, §2
The aforementioned GPR120-SE302 cells or mGPR120-SE302 cells constructed in Example 6 were suspended in the culture medium for measurement of transcription activity (DMEM containing FBS which was heat-treated at 65° C. for 30 min at a final concentration of 10%) and seeded onto a 96 well plate (Becton Dickinson, Co.) at 1×10^4 cells/well. In addition, as control cells, SE302 cells expressing green fluorescent protein (GFP, Invitrogen, Co.) (referred to as “GFP-SE302 cells” hereinafter) were used. Specifically, GFP-302 cells were prepared by obtaining a virus for expressing GFP using the method shown in Example 3 and 4, and transfecting SE302 cells with the virus using the method shown in Example 6. Cells were cultured for 24 hours after seeding, and forskolin prepared at a final concentration of 1.0 μM and a sample were added. Cells were cultured for another 24 hours and 5 μL of the cell supernatant was recovered and transferred to a polypropylene 384-well white plate (Nalge Nunc International, Co.). Then, 20 μL of the assay buffer (280 mmol/L Na2CO3—NaHCO3, 8 mmol/L MgSO4, pH 10) and 25 μL of Lumiphos530 (Lumigen, Co.) were added. Following a 2-hour reaction at room temperature, chemiluminescence in each well was measured using a Fusion plate reader (Perkin Elmer, Co.) and was defined as the transcription activity. Based on these measured values, stimulation/inhibition of transcription activity was calculated using the equation (I) shown below and described as [% of control]. Activities of the group with a sample added were calculated using the value of control placed on each plate. [% of control]=(X−C)/(F−C)×100 (I) Herein, in the above equation: • X: PLAP transcription activity in the group added with a sample, • F: Mean value of transcription activities in 2 wells of a positive control (no sample added, stimulated with forskolin), • C: Mean value of transcription activities in 2 wells of a negative control (no sample added, not stimulated with forskolin).

“porcine pancreatic sPLA2: commercially-available (Sigma) porcine pancreatic sPLA2, reported to be mainly Group IB sPLA2 (Swiss Prot P00592)”: in assay [1], the “PLAP activity in GPR120-SE302 cells” value was “concentration dependent elevation of PLAP activity”. For the same molecule, the “PLAP activity in mGPR120-SE302 cells” value in assay [2] is on record as “concentration dependent elevation of PLAP activity”.

B1: hGX-sPLA2-His: purified human C-terminal His-tagged GX-sPLA2 from baculovirus-infected Sf9 cells (protein, UniProt O15496 43-165, looked up)
Group 10 secretory …: GILELAGTVGCVGPRTPIAYMKYGCFCGLGGHGQPRDAIDWCCHGHDCCYTRAEEAGCSPKTERYSWQCVNQSVLCGPAENKCQELLCKCDQEIANCLAQTEYNLKYLFYPQFLCEPDSPKCD
modifications: C-terminal His6 tag
notes: purified human C-terminal His-tagged GX-sPLA2 from baculovirus-infected Sf9 cells
Consider B1, for which the “PLAP activity in mGPR120-SE302 cells” value in assay [2] is listed as “concentration dependent elevation of PLAP activity”.

B2: GX-sPLA2: rat Group X secretory phospholipase A2 (SEQ ID NO 23) purified from rat intestinal tract and testis extracts (protein, listed as Rattus norvegicus)
chain: GLLELAGTLDCVGPRSPMAYMNYGCYCGLGGHGEPRDAIDWCCYYHDCCYSQAQDAGCSPKLYRYPWKCMDHRILCGPAENKCQELLCRCDETLAYCLADTEYHLKYLFFPSVLCEKDSPKCN
Regarding B2, the “PLAP activity in GPR120-SE302 cells” value in assay [1] was “elevate PLAP activity specifically in GPR120-SE302 cells”.

B3: mGX-sPLA2-His: purified mouse C-terminal His-tagged GX-sPLA2 from baculovirus-infected Sf9 cells (protein, UniProt Q9QXX3 29-151, looked up)
Group 10 secretory …: B2 chain with Y45H, Q52R, Y63D, R73H, T93E, D100G, V113I
modifications: C-terminal His6 tag
notes: purified mouse C-terminal His-tagged GX-sPLA2 from baculovirus-infected Sf9 cells
B3: the “PLAP activity in mGPR120-SE302 cells” value in assay [2] is recorded as “concentration dependent elevation of PLAP activity”.

B4: recombinant hGX-sPLA2: C-terminal FLAG-tagged human GX-sPLA2 (SEQ ID NO 43) produced in silkworm pupae, purified (protein, listed as Homo sapiens)
chain: MGPLPVCLPIMLLLLLPSLLLLLLLPGPGSGEASRILRVHRRGILELAGTVGCVGPRTPIAYMKYGCFCGLGGHGQPRDAIDWCCHGHDCCYTRAEEAGCSPKTERYSWQCVNQSVLCGPAENKCQELLCKCDQEIANCLAQTEYNLKYLFYPQFLCEPDSPKCDDYKDDDDK
modifications: C-terminal FLAG tag
As to B4, in assay [1], the “PLAP activity in GPR120-SE302 cells” value is “concentration dependent elevation of PLAP activity”. The “PLAP activity in mGPR120-SE302 cells” value in assay [2] is “concentration dependent elevation of PLAP activity”.

B5: recombinant mGX-sPLA2: C-terminal FLAG-tagged mouse GX-sPLA2 (SEQ ID NO 45) from baculovirus-infected Sf-9 cells, purified (protein, listed as Mus musculus)
chain: MLLLLLLLLLGPGPGFSEATRRSHVYKRGLLELAGTLDCVGPRSPMAYMNYGCYCGLGGHGEPRDAIDWCCYHHDCCYSRAQDAGCSPKLDRYPWKCMDHHILCGPAENKCQELLCRCDEELAYCLAGTEYHLKYLFFPSILCEKDSPKCNDYKDDDDK
modifications: C-terminal FLAG tag
Consider B5, for which the “PLAP activity in GPR120-SE302 cells” value in assay [1] was “concentration dependent elevation of PLAP activity”. In addition, in assay [2], the “PLAP activity in mGPR120-SE302 cells” value was “concentration dependent elevation of PLAP activity”.
